# Results taken from patent US20210205365A1, “Chimeric Growth Factor Receptors” (Instil Bio (UK) Ltd., priority 2018, published 2021).
# B1: TpoR.IL2rγ: SEQ ID NO: 6; TpoR fused to IL2rγ cytoplasmic domain (protein)
# chain: MPSWALFMVTSCLLLAPQNLAQVSSQDVSLLASDSEPLKCFSRTFEDLTCFWDEEEAAPSGTYQLLYAYPREKPRACPLSSQSMPHFGTRYVCQFPDQEEVRLFFPLHLWVKNVFLNQTRTQRVLFVDSVGLPAPPSIIKAMGGSQPGELQISWEEPAPEISDFLRYELRYGPRDPKNSTGPTVIQLIATETCCPALQRPHSASALDQSPCAQPTMPWQDGPKQTSPSREASALTAEGGSCLISGLQPGNSYWLQLRSEPDGISLGGSWGSWSLPVTVDLPGDAVALGLQCFTLDLKNVTCQWQQQDHASSQGFFYHSRARCCPRDRYPIWENCEEEEKTNPGLQTPQFSRCHFKSRNDSIIHILVEVTTAPGTVHSYLGSPFWIHQAVRLPTPNLHWREISSGHLELEWQHPSSWAAQETCYQLRYTGEGHQDWKVLEPPLGARGGTLELRPRSRYRLQLRARLNGPTYQGPWSSWSDPTRVETATETAWISLVTALHLVLGLSAVLGLLLLRWQFPAHYRRLRHALWPSLPDLHRVLGQYLRDTAALSPPKATVSDTCEEVEPSLLEILPKSSERTPLPLCSSQAQMDYRRLQPSCLGTMPLSVCPPMAESGSCCTTHIANHSYLPLSYWQQPERTMPRIPTLKNLEDLVTEYHGNFSAWSGVSKGLAESLQPDYSERLCLVSEIPPKGGALGEGPGASPCNQHSPYWAPPCYTLKPET
# modifications: TpoR.IL2rgamma; MISC_FEATURE (1)..(491): TpoR Extracellular Domain; MISC_FEATURE (492)..(513): TpoR Transmembrane Domain; MISC_FEATURE (514)..(635): TpoR Cytoplasmic Domain; MISC_FEATURE (636)..(721): IL2r-gamma Cytoplasmic Domain
# B2: IL-12: IL-12 as a control (protein, UniProt P29459 23-219; P29460 23-328, looked up)
# Interleukin-12 subunit alpha: RNLPVATPDPGMFPCLHHSQNLLRAVSNMLQKARQTLEFYPCTSEEIDHEDITKDKTSTVEACLPLELTKNESCLNSRETSFITNGSCLASRKTSFMMALCLSSIYEDLKMYQVEFKTMNAKLLMDPKRQIFLDQNMLAVIDELMQALNFNSETVPQKSSLEEPDFYKTKIKLCILLHAFRIRAVTIDRVMSYLNAS
# Interleukin-12 subunit beta: IWELKKDVYVVELDWYPDAPGEMVVLTCDTPEEDGITWTLDQSSEVLGSGKTLTIQVKEFGDAGQYTCHKGGEVLSHSLLLLHKKEDGIWSTDILKDQKEPKNKTFLRCEAKNYSGRFTCWWLTTISTDLTFSVKSSRGSSDPQGVTCGAATLSAERVRGDNKEYEYSVECQEDSACPAAEESLPIEVMVDAVHKLKYENYTSSFFIRDIIKPDPPKNLQLKPLKNSRQVEVSWEYPDTWSTPHSYFSLTFCVQVQGKSKREKKDRVFTDKTSATVICRKNASISVRAQDRYYSSSWSEWASVPCS
# What was measured:
# [1] = tested on: phospho-STAT5; experiment: Induction of pSTAT5 in CrGFR expressing T-cells; type: cell-based, human; conditions: for induction of pSTAT5 by cytokine or drug: CrGFR expressing T-cells from 4 donors treated for four hours
# Procedure: FIG. 15—Induction of pSTAT by chimeric recombinant growth factor receptors. Primary human T-cells were isolated and transduced with the indicated CrGFR. Cells were enriched for CrGFR expression using Miltenyi MACS technology and expanded via polyclonal stimulation. The enriched cells were stimulated for 4 h with either media alone (RPMI), IL2, IL12, Tpo or Eltrombopag (Elt) before methanol fixation and intracellular staining with antibodies towards phospho-STAT5.
# Finally, Applicants validated the signalling potential of the novel CrGFR by conducting phospho STAT analysis upon treatment of CrGFR expressing T-cells with media, cytokine or drug. To this end T-cells from 4 donors were transduced with either the wt TpoR, TpoR. CD40 or TpoR.IL2rγ, enriched for CrGFR expression using paramagnetic bead selection protocols and then expanded using polyclonal stimulation. The cells were treated for four hours with media alone (RPMI), IL-2, Tpo or Eltrombopag (Elt) before methanol fixation, permeabilization and analysis using pSTAT specific antibodies. STAT molecules are the key drivers of cell signalling upon cytokine activation of cells, pSTAT5 in particular is key to IL-2 activity.
# [2] = tested on: primary human T-cells; experiment: Eltrombopag and IL-2 on CrGFR transduced primary human T-cells, up to 21 days; type: cell-based; conditions: after 21 days, x3 donors, Eltrombopag
# Procedure: (§1) FIGS. 6A-6B—Analysis of Eltrombopag and IL-2 on primary human T-cells from Donor 1. Primary human T-cells from donor 1 were transduced with the WT TpoR or variant CrGFR and incubated in the presence of IL2 or Eltrombopag. Cells were removed at time points up to 21 days and the proportion of cells expressing the receptor assessed using PE conjugated anti-CD110 antibodies and a MACSQuant analyser.
# as §1, with “FIGS. 7A-7B—Analysis” for “FIGS. 6A-6B—Analysis”, “Donor 2.” for “Donor 1.”, “donor 2” for “donor 1”
# as §1, with “FIGS. 8A-8B—Analysis” for “FIGS. 6A-6B—Analysis”, “Donor 3.” for “Donor 1.”, “donor 3” for “donor 1”
# FIGS. 9A-9B—Selection of optimal CrGFRs for next round of analysis. Flow cytometry plots showing expression of CrGFRs in ×3 donor primary human T-cells after 21 days incubation in Eltrombopag. The receptors TpoR.CD40, TpoR.IL2rγ, TpoR.ITAM1, TpoR.A60, TpoR.LMP1-cyto and TpoR.TpoR-cyto.LMP1-cyto were chosen for future comparison with the wt TpoR.
# Peripheral blood mononuclear cells were isolated from normal healthy donors before activation for 24 hours with T-cell activation and expansion beads (Invitrogen) according to the manufacturer's instructions before addition of lentiviral supernatants.
# Following expansion cells were washed excessively to remove any exogenous IL2 and plated into 96-well U-bottom plates. Cells were supplemented with IL2 (Proleukin) or Eltrombopag (Stratech Scientific, Suffolk, UK). At various time points thereafter cells were either stained with a 1:400 dilution of eFlor-450 fixable viability dye (eBioscience, UK) and counted directly from the wells using a MACSQuant Cytometer, or were stained with DRAQ7 viability dye plus phycoerythrin conjugated anti-CD110 antibodies (Miltenyi Biotec, UK) and analysed using a MACSQuant cytomter. Cell viability and/or transduction level was then analysed using MACSQuantify software (Miltenyi Biotec, UK).
# Next Applicants took these receptors and expressed them in primary human T-cells and exposed these cells to IL-2 or Eltrombopag. Three donor primary human T-cell populations were isolated from buffy coats and transduced with the indicated lentiviral constructs in the presence of CD3/CD28 Dynabeads. Following expansion the cells were incubated with IL-2 or Eltrombopag. Applicants saw an increase in expansion/survival of T-cells with some of the receptors in some of the donors. […] This narrowed Applicants' panel of receptors to analyse further to: TpoR.CD40, TpOR.IL2rγ, TpoR.ITAM1, TpOR.LMP1-cyt, and TpoR.TpoR-cyt-LMP1-cyt.
# [3] = tested on: primary human T-cells; experiment: Eltrombopag and IL-2 on CrGFR sorted (CD110+) primary human T-cells, up to 7 days; type: cell-based; conditions: second donor (FIG. 12)
# Procedure: (§2) FIG. 10—Analysis of Eltrombopag and IL-2 on CrGFR sorted primary human T-cells from Donor 4. Primary human T-cells from donor 4 were transduced with the WT TpoR or variant CrGFR, and enriched for expression by Miltenyi MACS technology selected for and incubated in the presence of IL2 or Eltrombopag. Cells were removed at time points up to 7 days and the number of cells expressing the receptor assessed using PE conjugated anti-CD110 antibodies, DRAQ7 viability dye and a MACSQuant analyser.
# as §2, with “11—Analysis” for “10—Analysis”, “5.” for “4.”, “5” for “4”
# as §2, with “12—Analysis” for “10—Analysis”, “6.” for “4.”, “6” for “4”
# Paramagnetic bead sorts were conducted as per the manufacturers' instructions using either anti-PE microbeads (Miltenyi Biotec or StemCell Technologies), or T-cell isolation beads (17951: StemCell Technologies).
# Next Applicants repeated the experiment but sorted the CrGFR+ cells using CD110+ selection by paramagnetic bead selection using the receptors identified from the first round of selections (FIGS. 10, 11 and 12). Applicants observed enhanced survival of T-cells engrafted with the majority of the CrGFR in all three donors. In particular Applicants saw expansion of WT-TpoR, TpOR.CD40, TpOR.IL2rγ and TpoR.LMP1-cyto cells in the second donor (FIG. 12) above that with media alone.
# [4] = tested on: ovarian TIL; experiment: CrGFR in ovarian TIL mixed with patient matched tumour cells; type: cell-based, human; conditions: all three donors
# Procedure: FIG. 14—Analysis of Chimeric recombinant Growth Factor Receptors in Ovarian TIL. Tumour Infiltrating Lymphocytes from ×3 ovarian TIL were transduced with the WT TpoR or indicated variant CrGFR and incubated in the presence of patient matched tumour cells with either Eltrombopag or no growth factors. Cells were analysed and counted at days 4 and 7 and the number of cells expressing the receptor assessed using PE conjugated anti-CD110 antibodies, DRAQ7 viability dye and a MACSQuant analyser. Graphs show counts between days 4 and 7 when recovery of TIL occurs after an initial contraction in numbers driven by tumour regulatory factors and/or activation induced cell death.
# Applicants evaluated further the effect of the CrGFR in ovarian TIL. Three ovarian TIL populations were engineered to express either the WT, or TpoR.CD40, TpoR.IL2rγ or TpoR.LMP1-Cyt variant receptors and mixed with patient matched tumour cells in the presence or absence of Eltrombopag. Counts of total and CD110+ cells were made after 4 and 7 days. Applicants observed specific expansion of the CrGFR+ cells in the presence of tumour between days 4 and 7 in donors 2 and 3 with all the receptors except the TpOR.LMP1.cyt.
Molecule,induction of pSTAT5 by cytokine or drug [1],proportion of viable cells with a distinct population of CD110+ cells [2],expansion of CrGFR cells above that with media alone [3],activity compared with the WT receptor [4],"STAT5 activation of the CrGFR when stimulated with Eltrombopag ([1]; T-cells transduced with wt TpoR, TpoR.CD40 or TpoR.IL2rγ)"
"Tpo: thrombopoietin (Tpo), native ligand of TpoR",showed induction of STAT5 activity,–,–,–,–
TpoR.LMP1-cyt: SEQ ID NO: 12; TpoR EC and TM domain fused to LMP-1 cytoplasmic domain,–,good proportion of viable cells with a distinct population of CD110+ cells,expansion,–,–
B1,–,good proportion of viable cells with a distinct population of CD110+ cells,expansion,superior to that of the WT receptor,clear activation of the correct STAT5 activation pathway
B2,unable to induce STAT5 activation,–,–,–,–
